The experiment has as its target PKM2 (human (endogenous in H1650)) (UniProt P14618). The experiment can be described thus: cross-linking.

One substance from publication PMC8355190 can be followed below.

Sequence of PKM2, P14618 1-531 (enzyme; other documents disagree on this pair) (P14618 whole entry): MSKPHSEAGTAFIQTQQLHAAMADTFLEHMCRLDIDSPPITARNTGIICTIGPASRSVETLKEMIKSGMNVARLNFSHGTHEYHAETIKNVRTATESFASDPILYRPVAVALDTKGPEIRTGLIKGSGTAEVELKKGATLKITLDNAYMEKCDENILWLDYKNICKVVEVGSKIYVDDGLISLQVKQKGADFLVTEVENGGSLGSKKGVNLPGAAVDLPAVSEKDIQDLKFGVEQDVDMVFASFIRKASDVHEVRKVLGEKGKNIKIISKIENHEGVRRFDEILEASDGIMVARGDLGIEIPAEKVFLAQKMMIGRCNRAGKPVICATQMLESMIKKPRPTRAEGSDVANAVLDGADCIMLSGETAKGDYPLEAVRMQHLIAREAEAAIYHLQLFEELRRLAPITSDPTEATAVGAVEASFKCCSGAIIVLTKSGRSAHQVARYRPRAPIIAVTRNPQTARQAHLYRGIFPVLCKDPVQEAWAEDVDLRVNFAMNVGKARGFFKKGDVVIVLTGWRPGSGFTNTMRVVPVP

In general, stoichiometry N refers to a count of units in the complex or per binding partner. The substance “PKM2, P14618 1-531 (enzyme; other documents disagree on this pair)” displayed a stoichiometry N of 2.
